In article PMC11480449, “Adaptive laboratory evolution recruits the promiscuity of succinate semialdehyde dehydrogenase to repair different metabolic deficiencies” (Nature Communications, 2024):
Substitutions are numbered along the chain they refer to. Names and notes keep the numbering of the source. Each block holds one molecule with its values, some of them ahead of it.

Key:
[1] = biological target: T1, Sad (NAD(P)+-dependent succinate semialdehyde dehydrogenase, SSADH) (Escherichia coli, UniProt P76149, Q262R); assay: NADH formation at […] nm, substrate-inhibition fit; assay type: biochemical; conditions: 1 mM NAD+, 75 mM HEPES pH 8.0, 37 °C
T1 construct: dimeric on size exclusion
T1 sequence (P76149 whole entry Q262R): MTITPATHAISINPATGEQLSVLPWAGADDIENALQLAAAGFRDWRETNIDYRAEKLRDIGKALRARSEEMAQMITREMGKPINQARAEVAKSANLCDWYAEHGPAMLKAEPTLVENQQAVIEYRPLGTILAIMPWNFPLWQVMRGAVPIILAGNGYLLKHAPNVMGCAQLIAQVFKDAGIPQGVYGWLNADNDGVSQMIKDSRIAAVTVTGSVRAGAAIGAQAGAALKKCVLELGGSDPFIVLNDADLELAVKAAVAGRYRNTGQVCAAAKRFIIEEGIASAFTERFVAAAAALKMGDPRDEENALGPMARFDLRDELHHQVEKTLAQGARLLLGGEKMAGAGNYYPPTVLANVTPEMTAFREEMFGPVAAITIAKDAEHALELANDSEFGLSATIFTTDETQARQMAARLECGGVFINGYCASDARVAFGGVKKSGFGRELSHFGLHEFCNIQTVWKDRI

[2] = biological target: T2, ThrA (bifunctional aspartokinase (AK)/homoserine dehydrogenase (HDH) 1) (Escherichia coli, UniProt P00561); assay: homoserine dehydrogenase, NADPH consumption at […] nm; assay type: biochemical; conditions: 0.2 mM NADPH, 1 mM substrate, 100 mM KCl, pH 8.0, 37 °C
T2 sequence (P00561 1-820): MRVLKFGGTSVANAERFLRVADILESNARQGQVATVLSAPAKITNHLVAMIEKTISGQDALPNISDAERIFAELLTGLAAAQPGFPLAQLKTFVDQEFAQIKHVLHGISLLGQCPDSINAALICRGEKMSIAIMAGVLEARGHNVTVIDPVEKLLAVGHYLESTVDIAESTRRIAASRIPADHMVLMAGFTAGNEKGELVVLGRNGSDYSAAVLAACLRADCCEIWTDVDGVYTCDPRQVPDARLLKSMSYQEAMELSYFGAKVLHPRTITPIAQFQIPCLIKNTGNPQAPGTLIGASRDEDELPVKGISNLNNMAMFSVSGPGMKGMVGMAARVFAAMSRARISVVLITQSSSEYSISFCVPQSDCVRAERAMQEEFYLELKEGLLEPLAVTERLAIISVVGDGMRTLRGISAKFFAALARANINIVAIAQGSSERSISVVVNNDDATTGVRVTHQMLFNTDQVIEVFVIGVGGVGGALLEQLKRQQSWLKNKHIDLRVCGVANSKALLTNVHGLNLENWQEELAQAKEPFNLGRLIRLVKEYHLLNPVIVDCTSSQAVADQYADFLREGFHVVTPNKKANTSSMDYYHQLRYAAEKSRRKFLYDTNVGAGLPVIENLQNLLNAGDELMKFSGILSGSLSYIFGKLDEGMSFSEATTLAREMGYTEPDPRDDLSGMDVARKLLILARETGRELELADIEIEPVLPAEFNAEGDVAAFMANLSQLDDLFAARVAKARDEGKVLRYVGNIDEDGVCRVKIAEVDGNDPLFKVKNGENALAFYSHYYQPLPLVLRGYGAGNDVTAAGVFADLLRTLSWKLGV

[3] = biological target: T3, Sad (NAD(P)+-dependent succinate semialdehyde dehydrogenase, SSADH) (Escherichia coli, UniProt P76149); assay: X-ray crystallography; assay type: binding
T3 construct: dimeric on size exclusion

[4] = biological target: T1, Sad (NAD(P)+-dependent succinate semialdehyde dehydrogenase, SSADH); assay: X-ray crystallography; assay type: binding; conditions: 5 mM NAD+, 1 mM TCEP
[5] = biological target: T3, Sad (NAD(P)+-dependent succinate semialdehyde dehydrogenase, SSADH); assay: NADH formation at […] nm, substrate-inhibition fit; assay type: biochemical; conditions: 1 mM NAD+, 75 mM HEPES pH 8.0, 37 °C
[6] = biological target: T2, ThrA (bifunctional aspartokinase (AK)/homoserine dehydrogenase (HDH) 1); assay: aspartate kinase, PK/LDH-coupled, NADH at […] nm; assay type: biochemical; conditions: 4 mM ATP, 5 mM L-aspartate, 5 mM MgCl2, pH 8.0, 37 °C
[7] = substrate: O=CCCC(=O)O; assay: purified protein; assay type: biochemical, Escherichia coli; conditions: 75 mM HEPES pH 8.0, 37 °C
[8] = substrate: O=C[C@H](O)[C@H](O)COP(=O)(O)O; assay: purified protein; assay type: biochemical, Escherichia coli; conditions: 1 mM NAD+, 75 mM HEPES pH 8.0, 37 °C
[9] = substrate: O=C[C@H](O)COP(=O)(O)O; assay: purified protein; assay type: biochemical, Escherichia coli; conditions: 1 mM NAD+, 75 mM HEPES pH 8.0, 37 °C
[10] = biological target: the molecule itself; assay: SEC; HiLoad 16/600 Superdex 200 pg, 20 mM HEPES-KOH, 50 mM KCl, pH 7.5; preparative step after affinity purification, before crystallisation

App. Ki [1]: 1400 ± 300 µM
Molecule: O=C[C@H](O)COP(=O)(O)O [glyceraldehyde 3-phosphate]

Molecule: N[C@@H](CC=O)C(=O)O [L-aspartic 4-semialdehyde]
homoserine dehydrogenase, NADPH consumption at 340 nm [2]: Homoserine dehydrogenase activities of ThrA variants were determined

Molecule: NC(=O)c1ccc[n+]([C@@H]2O[C@H](COP(=O)(O)OP(=O)(O)OC[C@H]3O[C@@H](n4cnc5c(N)ncnc54)[C@H](O)[C@@H]3O)[C@@H](O)[C@H]2O)c1 [NAD^+]
X-ray crystallography ([3]; 5 mM NAD+): crystal structures of both Sad WT and Q262R variants with bound NAD^+ | X-ray crystallography [4]: crystal structures of both Sad WT and Q262R variants with bound NAD^+

App. Ki [1]: 7400 ± 3300 µM
Molecule: O=C[C@H](O)[C@H](O)COP(=O)(O)O [erythrose 4-phosphate]

App. Ki [5]: 300 ± 100 µM | X-ray crystallography ([3]; covalent, bound to C268, NAD+ present, crystal soaked with 5 mM SSA): the latter is covalently bound to C268 | App. Ki [1]: 500 ± 100 µM
Molecule: O=CCCC(=O)O [succinate semialdehyde]

Molecule: N[C@@H](CC(=O)O)C(=O)O [L-aspartate]
aspartate kinase, PK/LDH-coupled, NADH at 340 nm [6]: Aspartate kinase activities of ThrA variants were determined

B1: GabD (NADP+-dependent SSADH) (Escherichia coli K-12) (protein)
chain: MKLNDSNLFRQQALINGEWLDANNGEAIDVTNPANGDKLGSVPKMGADETRAAIDAANRALPAWRALTAKERATILRNWFNLMMEHQDDLARLMTLEQGKPLAEAKGEISYAASFIEWFAEEGKRIYGDTIPGHQADKRLIVIKQPIGVTAAITPWNFPAAMITRKAGPALAAGCTMVLKPASQTPFSALALAELAIRAGVPAGVFNVVTGSAGAVGNELTSNPLVRKLSFTGSTEIGRQLMEQCAKDIKKVSLELGGNAPFIVFDDADLDKAVEGALASKFRNAGQTCVCANRLYVQDGVYDRFAEKLQQAVSKLHIGDGLDNGVTIGPLIDEKAVAKVEEHIADALEKGARVVCGGKAHERGGNFFQPTILVDVPANAKVSKEETFGPLAPLFRFKDEADVIAQANDTEFGLAAYFYARDLSRVFRVGEALEYGIVGINTGIISNEVAPFGGIKASGLGREGSKYGIEDYLEIKYMCIGL
Km ([7]; 1 mM NADP+): 13 ± 1 µM | kcat ([7]; 1 mM NADP+): 132 ± 2 s⁻¹ | kcat/Km ([7]; 1 mM NADP+): 1e+07 M⁻¹ s⁻¹

B2: Sad (NAD(P)+-dependent succinate semialdehyde dehydrogenase, SSADH) (Escherichia coli K-12) (protein)
chain: MTITPATHAISINPATGEQLSVLPWAGADDIENALQLAAAGFRDWRETNIDYRAEKLRDIGKALRARSEEMAQMITREMGKPINQARAEVAKSANLCDWYAEHGPAMLKAEPTLVENQQAVIEYRPLGTILAIMPWNFPLWQVMRGAVPIILAGNGYLLKHAPNVMGCAQLIAQVFKDAGIPQGVYGWLNADNDGVSQMIKDSRIAAVTVTGSVRAGAAIGAQAGAALKKCVLELGGSDPFIVLNDADLELAVKAAVAGRYQNTGQVCAAAKRFIIEEGIASAFTERFVAAAAALKMGDPRDEENALGPMARFDLRDELHHQVEKTLAQGARLLLGGEKMAGAGNYYPPTVLANVTPEMTAFREEMFGPVAAITIAKDAEHALELANDSEFGLSATIFTTDETQARQMAARLECGGVFINGYCASDARVAFGGVKKSGFGRELSHFGLHEFCNIQTVWKDRI
notes: dimeric on size exclusion
Km [8]: 2,102 ± 328 μM | kcat [8]: 1.1 ± 0.1 s⁻¹ | kcat/Km [8]: 530 M⁻¹ s⁻¹ | Km ([7]; 1 mM NAD+): 11 ± 1 µM | kcat ([7]; 1 mM NAD+): 85 ± 3 s⁻¹ | kcat/Km ([7]; 1 mM NAD+): 7.4e+06 M⁻¹ s⁻¹ | Km [9]: 1,106 ± 92 μM | kcat [9]: 3.1 ± 0.2 s⁻¹ | kcat/Km [9]: 2800 M⁻¹ s⁻¹

B3: Sad (NAD(P)+-dependent succinate semialdehyde dehydrogenase, SSADH) (Escherichia coli K-12; Q262R) (protein)
chain: B2 chain with Q262R
notes: dimeric on size exclusion
Km [8]: 28 ± 4 µM | kcat [8]: 3 ± 0.1 s⁻¹ | kcat/Km [8]: 110000 M⁻¹ s⁻¹ | Km ([7]; 1 mM NAD+): 5 ± 1 µM | kcat ([7]; 1 mM NAD+): 87 ± 4 s⁻¹ | kcat/Km ([7]; 1 mM NAD+): 1.9e+07 M⁻¹ s⁻¹ | Km [9]: 67 ± 9 µM | kcat [9]: 19 ± 1 s⁻¹ | kcat/Km [9]: 280000 M⁻¹ s⁻¹

B4: Succinate semialdehyde dehydrogenase Sad, Q262R variant (enzyme, Escherichia coli)
chain: B2 chain with Q262R
notes: Succinate semialdehyde dehydrogenase Sad, E. coli, with Q262R (arose in adaptive laboratory evolution); also called Q262R mutant; source: E. coli BL21(DE3), purified (HisTrap, Superdex 200)
binding result [10]: binds

B5: NAD(P)+-dependent succinate semialdehyde dehydrogenase of Escherichia coli (Sad), wild type (enzyme)
chain: B2 chain
notes: Succinate semialdehyde dehydrogenase Sad, E. coli; also called Sad WT; SSADH; source: E. coli BL21(DE3), purified (HisTrap, Superdex 200)
binding result [10]: binds
